Laboratory results reported in publication PMC10352601 (Blood, 2023).

Molecular target: T1, ET3i, a bioengineered human/porcine FVIII chimera (Homo sapiens / Sus scrofa chimera (A1, …, chimera))
T1 chain: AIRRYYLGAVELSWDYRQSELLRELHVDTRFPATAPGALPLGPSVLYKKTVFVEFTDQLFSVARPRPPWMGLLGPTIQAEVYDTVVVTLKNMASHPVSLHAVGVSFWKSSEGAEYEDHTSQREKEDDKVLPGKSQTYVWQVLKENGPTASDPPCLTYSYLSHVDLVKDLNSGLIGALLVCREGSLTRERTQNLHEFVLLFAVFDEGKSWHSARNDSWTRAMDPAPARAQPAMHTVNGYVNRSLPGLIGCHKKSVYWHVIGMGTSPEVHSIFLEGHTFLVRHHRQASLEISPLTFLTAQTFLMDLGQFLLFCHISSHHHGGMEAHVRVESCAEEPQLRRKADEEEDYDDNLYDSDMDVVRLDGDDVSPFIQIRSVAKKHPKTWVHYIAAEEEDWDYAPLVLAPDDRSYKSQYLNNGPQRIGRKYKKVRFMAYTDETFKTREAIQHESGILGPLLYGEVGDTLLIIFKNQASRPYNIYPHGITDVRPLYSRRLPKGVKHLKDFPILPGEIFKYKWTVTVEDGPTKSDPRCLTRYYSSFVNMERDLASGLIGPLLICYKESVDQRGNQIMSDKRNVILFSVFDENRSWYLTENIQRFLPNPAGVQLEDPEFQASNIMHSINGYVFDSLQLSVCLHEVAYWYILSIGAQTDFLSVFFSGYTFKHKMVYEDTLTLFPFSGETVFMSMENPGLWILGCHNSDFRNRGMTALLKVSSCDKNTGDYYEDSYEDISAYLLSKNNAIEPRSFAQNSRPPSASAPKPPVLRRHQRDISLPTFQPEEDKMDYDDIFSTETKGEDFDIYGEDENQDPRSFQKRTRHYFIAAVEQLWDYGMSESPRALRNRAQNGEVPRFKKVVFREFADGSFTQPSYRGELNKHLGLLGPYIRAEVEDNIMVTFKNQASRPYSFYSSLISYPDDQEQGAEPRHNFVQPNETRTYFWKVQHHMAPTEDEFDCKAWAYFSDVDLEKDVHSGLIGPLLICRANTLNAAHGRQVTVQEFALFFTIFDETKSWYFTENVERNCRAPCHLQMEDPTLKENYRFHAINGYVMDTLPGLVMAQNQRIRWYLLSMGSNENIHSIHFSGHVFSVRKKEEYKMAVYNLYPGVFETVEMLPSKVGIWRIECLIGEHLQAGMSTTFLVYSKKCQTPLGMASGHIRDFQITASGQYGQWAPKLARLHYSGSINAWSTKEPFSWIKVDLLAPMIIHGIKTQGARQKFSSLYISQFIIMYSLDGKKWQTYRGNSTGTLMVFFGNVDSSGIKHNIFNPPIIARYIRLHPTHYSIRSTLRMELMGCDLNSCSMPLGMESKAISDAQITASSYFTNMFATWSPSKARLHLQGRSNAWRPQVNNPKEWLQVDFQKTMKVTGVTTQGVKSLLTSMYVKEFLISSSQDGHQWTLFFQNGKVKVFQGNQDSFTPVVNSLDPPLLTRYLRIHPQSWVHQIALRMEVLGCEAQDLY
Test: cell-based or functional assay

B1: Fab fragment of NB33, a recombinant immunoglobulin G derivative of KM33 (Fab, V domains shown)
VH: EVQLVESGGGVVQPGRSLRLSCVDSGLTFSSYGMHWVRQAPGAGLEWVAVISYDGNDKYYADSVKGRFAISRDNAKNTLYLQMNSLTIEDTAVYYCAKDLIESNIAEAFWGQGTLVTVSS
VL: DIQMTQSPSSLSASVGDTVTIACRASRDIRNDLAWYQQKPGKAPKLLIYATSRLQSGVPSRFSGSGSFTDFTLTINSLQPDDSATYYCLQDSDYPLTFGGGTKVDIK
- neutralization of ET3i by NB33, factor X activation chromogenic assay (IC50): 3.64 nM
